Laboratory results reported in paper PMC12454647.

Key:
[1] = target: BdhE (bifunctional dehydrogenase E) from Halomonas eurihalina (Halomonas eurihalina); assay: cryo-EM structure; single particle analysis, 2.02 mg/mL AdhE or 1.35 mg/mL BdhE, no cofactors added, Talos Arctica 200 kV, CryoSPARC
[2] = target: BdhE (bifunctional dehydrogenase E) from Halomonas eurihalina (Halomonas eurihalina); assay: native gel or EMSA; blue native PAGE, 3-14% polyacrylamide gradient, 150 V for ~75 minutes; purified AdhE 5 or 10 ug, BdhE 1 or 2 ug

BdhE (bifunctional dehydrogenase E) from Halomonas eurihalina (enzyme)
stoichiometry N [1]: 4
stoichiometry N [2]: 4
